In the RNAGym collection of RNA variant scans (doi:10.1073/pnas.2313332121):

B1: TPR t1 (parent)
chain: GACCAAUCUGCCCUCAGAGCUCGAGAACAUCUUCGGAUGCAGAGGAGGCAGGCUUCGGUGGCGCGAUAGCGCCAACGUCCUCAACCUCCAAUGCAUCCCACCACAUGAUGAUGCCUGAAGAGCCUUGGUUUUUUG

Variants of: B1
Assay: polymerase ribozyme fitness, log enrichment relative to wild type (log ratio); higher = more active; in vitro selection for triplet polymerase activity
How it was run: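 Mutant libraries of both subunits of a heterodimeric triplet polymerase ribozyme were PCR-built, transcribed, and selected once in triplicate, with frozen incubation at −7 °C and capture of gel-excised extended constructs on streptavidin beads before RT-PCR. Illumina sequencing of input and output libraries was filtered to genotypes with ≥10 input reads and ≥1 read per output. Fitness is the logarithm of genotype enrichment over wild-type enrichment, using inverse-variance-weighted replicate averages. The logarithm is base 2.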

| Variant | polymerase ribozyme fitness (log ratio) |
| --- | --- |
| A16U C70A U116C U130G | -2.69 |
| G69C C89G | -3.31 |
| G58U C99U G117C U131C | -5.92 |
| G36A C86U | -0.488 |
| U78C U87G C88A G113A G127A | -3.89 |
| G69U G93U G110A | -0.494 |
| C22U C53A C72U A95G C104A | -4.54 |
| U33C U38A C49G A103C G113U G117A | -6.59 |
| A68U G69C A121C | -3.61 |
| U14G G61A | -1.48 |
| C11A G45U C49U C70U U87A | -3.95 |
| C40A A111U | -4.74 |
| G48C C101U A105G G120U | -3.67 |
| C40U C49A C89G | -2.46 |
| C49U G51U C62U C80A | -3.6 |
| U7G C70U A105G | -3.6 |
| C70U G71A | -1.05 |
| A6C A29U C49A A66C G71C A119U | -4.4 |
| C12U C40U C86U C94G U130A | -3.47 |
| C8A U55C C79G C94A | -3.64 |
| C4G C8G A50U G113C C115U | -5.07 |
| G48A C49U C56A A100U | -2.11 |
| A75G C82U A83C G93A A105C | -3.08 |
| C4G C8G A37U G45A U131G | -2.92 |

| Variant | polymerase ribozyme fitness (log ratio) |
| --- | --- |
| G45U C123G | -0.391 |
| A50G C56A | -0.266 |
| C8G C73U C79U | 0.882 |
| A41U G69C G127U | -3.25 |
| U9C A37C C114G G117U | -3.29 |
| C28U C56G G57C | -2.34 |
| C13U C73U G93C U106A A118G | -1.26 |
| A5U C20A G69U C98G C123G | -2.75 |
| G10C C40G C56G G61A A68U G77U U112C | -6.74 |
| U7A G60A U81A | -0.716 |
| C12A A50U C70A | -3.58 |
| U32C U78C C89A | -1.52 |
| C11G G61U | 0.628 |
| C102U C123U | -0.21 |
| U9C C12A | 0.347 |
| G69C G110A | -2.04 |
| G52U C70G C72U | -3.48 |
| C8A C12U C86G C104A | -1.31 |
| C11U U125G | -1.31 |
| C34A A41G C88U C101U | -3.38 |
| G60U G63U C99U C101G C115G G122U C124G | -6.39 |
| A2G C88A A100U C115U | -3.59 |
| G47U G63A | -2.11 |
| G47C C104U | -1.08 |

| Variant | polymerase ribozyme fitness (log ratio) |
| --- | --- |
| G17U G117A U129A | -4.12 |
| C28U G117C | -6 |
| A29G G71U | -1.72 |
| C56U C94U G120C A121U G127U | 0.202 |
| G60C U132A | -0.171 |
| U21G C56A C70U C89A G113U | -3.69 |
| A16U C70A A74U | -4.08 |
| G71C G120U | -0.52 |
| G48U G60U A66C U78G A90G C123A U132A | -1.91 |
| C12A G69U G128C | -1.9 |
| A46U A84U A95U C102A | -4.22 |
| U59C | -0.0998 |
| C20U U55G G69U C99A | -3.12 |
| A16U C40U C82U | -2.7 |
| C13G C49A | -1.26 |
| C40U C56G A84C C88A U109A | -7.02 |
| G93C A95C | -0.938 |
| U30C G60A | -1.98 |
| G69A G77C | -4.57 |
| C22G U67A G93C A103G G110U | -5.12 |
| U21A C28A G71A C79U U81A G110C | -6.99 |
| A2U G45A G69U C124A | -0.409 |
| G17A G120C G127U | -1.24 |
| C3U G113A | -1.68 |

| Variant | polymerase ribozyme fitness (log ratio) |
| --- | --- |
| C15A G39C A41U C101U | -3.77 |
| G39A A43G G127U | -2.87 |
| C20U G48U A91C C94G | -4.07 |
| U7A C15A C101A U112A | 0.0193 |
| C22U C115G | -4.6 |
| A84U A103U G110C | -3.57 |
| G110C U125A | -5.11 |
| G69C C79G U109G | -6.78 |
| C12U C62U G69A | -3.66 |
| G77A U81C | 0.0727 |
| C3A A5U C11G G36U G45U | -1.02 |
| A121U C123A C124G | 2.17 |
| C40U A74G C88U G120A A121C | -0.0609 |
| G69C C70U | -3.87 |
| G57C G60U C88A U106A | -0.528 |
| C8G G42A C53A G63A U81C C82A C86U C99G A118U | -7.86 |
| C73U A121G | 2.17 |
| C20A A50G A74U | -3.16 |
| A2U G61U | -1.84 |
| A5U C53A C88A C98A U109A | -5.9 |
| A2U U21A G36A C56U C114A | -3.98 |
| C12U C88A | -0.264 |
| C13G C49A G60A C64U U96A U106G G110A U132C | -6.52 |
| G42U C82U | -1.44 |

| Variant | polymerase ribozyme fitness (log ratio) |
| --- | --- |
| G69U U131A | -0.175 |
| C123A U125C | 0.193 |
| A6G G58A U59C | -1.72 |
| G23U G71C C94U C115U | -6.24 |
| U14A U21A U30G G58C C76U U112C A118C | -5.04 |
| C40U G61A U78C | -0.104 |
| U9A G36A A119G | 0.68 |
| G69C C94U U96A | -2.83 |
| U54C A84G U116G | -2.35 |
| U9C G36U G63C U112C G128C | -1.66 |
| A50G C72G | -0.204 |
| A29U A41G C53G | -2.64 |
| U32C G47U G48U C104G G117U G127C | -6.32 |
| A6U C15G C40U G61C C79A | -6.15 |
| C101U C102G | -6.19 |
| C13U G42U G44C C88A | -1.42 |
| G57A C82A C102A | -4.09 |
| C31U G39C G44U C85G G110C | -6.47 |
| A18U C94U C101A G110A | -6.65 |
| G39C G63C C104A | -3.07 |
| C15G U32C C49U U87G | -3.89 |
| C72G U112C | 1.51 |
| C72U U130A | -1.42 |
| A2U U7G C22A U33G C72U G120C | -7 |

| Variant | polymerase ribozyme fitness (log ratio) |
| --- | --- |
| C4G G60U | -1.18 |
| U78C C89A | -0.68 |
| G47A G60A | 1.12 |
| G10C C40U G45U | -1.47 |
| A18G C56U | -2.25 |
| A18U G45A | -2.78 |
| C104U A118G | 0.462 |
| G44C G69A | -4.37 |
| G71C A95U A111G C123U | -3.04 |
| C4U C20A | -2.6 |
| U9A C73A A95G C104A G110U | -3.62 |
| U30A C56A C82A U87A C114G G122A | -6.34 |
| C11U C73U | -0.94 |
| A27U C72A U96A | -4.21 |
| C12U C22A G39A C85A C102A | -7.04 |
| C20U G45U A100U | -3.67 |
| A5U G110C | -3.71 |
| C20U G42U C56A C115G | -3.91 |
| A66U C76G U78A U106A | -0.894 |
| G17U C49A U126C | -3.28 |
| C8G G10A A18G G65C U116G G117A | -5.46 |
| C12U A29G U125A | -1.53 |
| U14A A37U G52A U59C G71A | -3.95 |
| A6U G42U U87A C94A C123G | -1.12 |

| Variant | polymerase ribozyme fitness (log ratio) |
| --- | --- |
| G44U C53U | -1.59 |
| U9C C62A A75G C94A G110A | -4.36 |
| A5G C28A U33G U55A C73U A100C C124A | -5.92 |
| G61A C123A | 0.936 |
| G61A C123U | 1.29 |
| C28G C73G C104A A111C | -4.53 |
| U38A G63A G93U | -4.96 |
| A46C C72A C123U | 0.713 |
| A41C G93U | -1.92 |
| C11U A74U G113A | -2.56 |
| G48A A84C | -0.643 |
| G61A A83C | -0.418 |
| G52A C79A | -0.667 |
| A6G C62U G110C | -4.63 |
| C22A G39U | -5.33 |
| C40U U55C | -0.711 |
| A37U C101G G128C | -3.4 |
| C40G U55A G63U C124U | 0.229 |
| G47C G61C | -3.43 |
| A24G G42U U59G C88G | -5.92 |
| A37C G45C A111G C124U | -2.52 |
| C11U A26U G47U | -3.55 |
| U33A C72A U78C U87A | -5.41 |
